The series concerns the molecule itself. The series is described as follows: SEC; 100 μg tag-free cjDapE on Superdex 200 10/300, 20 mM Tris pH 8.0, 150 mM NaCl, 5 mM β-mercaptoethanol; size by calibration with gel-filtration standards. A general note: In gel filtration, larger molecules generally elute earlier.

B1: Campylobacter jejuni DapE (N-succinyl-L,L-diaminopimelic acid desuccinylase) (enzyme, UniProt Q0P9K4 1-365, looked up)
chain: MNAKEFLIELLKFKSVTPNDDGALNFIAMELSDFEAFFIEKEGIKNLLLTKKFKDEGEHLAFGGHVDVVPAGEGWSNNAFAPVEKEGFIYARGAQDMKSGVAAFVDAAKNADFKGARLSLILTSDEEGEAIYGTKAVLEWMQERDMLPDYAVVAEPTCVKKIGDSIKIGRRGSINGKLLIRGKQGHVAYPEKCINPVHDFAPVLKLLAGFDLDPGSAEFSPSKIVITDIRGGMGVCNVTPNDLKLMFNVRNSPDTSLEDVKSYVEKICHGLNYELELKQSSEAFLTNIDNKIVQKMNESVQKITHEVPELNTKGGTSDARYFAKYGVKVVEFGVCNDRIHAIDERVSIEEFEKLCLVFKDLIENF
notes: DapE of Campylobacter jejuni (ATCC 33291 genomic DNA), gene dapE (cj1048c), 365-residue protein, residues 1-365; in one crystal also captopril; The His6 tag was removed with thrombin; also called cjDapE; cjDapEZn; source: E. coli BL21 (DE3), purified (Ni-NTA, thrombin cleavage, Mono Q anion exchange); not shown: His6, N-terminal, cleaved
In the case of B1, the stoichiometry N (usually a count of units in the complex or per binding partner) is 2.

Values taken from paper PMC12731327, “Structural Analysis of the Putative Succinyl-Diaminopimelic Acid Desuccinylase DapE from Campylobacter jejuni: Captopril-Mediated Structural Stabilization” (Current Issues in Molecular Biology, 2025).
